The values below come from patent EP4606382A1 (Fundació Centre de Regulació Genòmica, dated 2025).

For the experiment, the target named is T1, NanoLuc-cTAGE5-CC2 (predicted binding region of cTAGE5 coiled-coil 2 with a Nanoluciferase tag at the …).
T1 construct: The fusion construct was expressed inside live HEK293T cells; also called C5-CC2; c5-CC2
T1 chain: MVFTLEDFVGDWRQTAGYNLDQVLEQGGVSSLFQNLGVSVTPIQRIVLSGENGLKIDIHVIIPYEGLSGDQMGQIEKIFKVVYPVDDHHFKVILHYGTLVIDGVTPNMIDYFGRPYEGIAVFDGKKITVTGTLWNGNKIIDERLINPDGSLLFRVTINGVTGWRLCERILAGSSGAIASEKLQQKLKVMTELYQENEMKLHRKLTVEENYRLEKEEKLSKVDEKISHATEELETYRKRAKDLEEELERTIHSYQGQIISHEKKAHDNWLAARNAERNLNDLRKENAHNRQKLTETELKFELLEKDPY
The experiment can be described thus: NanoBRET in live HEK293T cells (HaloTag 618 acceptor, NanoLuc donor). A general note: BRET reads energy transfer from a luciferase to a nearby fluorophore.

B1: Halo-T1-CC2 (portion of the coiled-coil region CC2 of TANGO1 with an N-terminal fusion of HaloTag) (other)
chain: MAEIGTGFPFDPHYVEVLGERMHYVDVGPRDGTPVLFLHGNPTSSYVWRNIIPHVAPTHRCIAPDLIGMGKSDKPDLGYFFDDHVRFMDAFIEALGLEEVVLVIHDWGSALGFHWAKRNPERVKGIAFMEFIRPIPTWDEWPEFARETFQAFRTTDVGRKLIIDQNVFIEGTLPMGVVRPLTEVEMDHYREPFLNPVDREPLWRFPNELPIAGEPANIVALVEEYMDWLHQSPVPKLLFWGTPGVLIPPAEAARLAKSLPNCKAVDIGPGLNLLQEDNPDLIGSEIARWLSTLEISGEPTTEDLYFQSDNAIASELRQKVEILNELYQQKEMALQKKLSQEEYERQEREHRLSAADEKAVSAAEEVKTYKRRIEEMEDELQKTERSFKNQIATHEKKAHENWLKARAAERAIAEEKREAANLRHKLLELTQKMAMLQEEP
modifications: HaloTag labeled with the HaloTag 618 fluorescent ligand
notes: The fusion construct was expressed inside live HEK293T cells; also called Halo-TANGO1-CC2; TANGO1-CC2
On to B1, for which the binding result is on record as “binds”.
